Test results taken from US20190359687A1 (Bayer, published 2019).

How the values were obtained:
GP5-7 = target: T1, GP5-7 (human, biotin at the N-terminus); assay: ELISA, biotin-peptide on streptavidin plate, Fab 1 ug/ml
T1 construct: GP5 with alanine at position 7 (V7A), already in the entry
T1 peptide: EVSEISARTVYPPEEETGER

GP5-8 = target: T2, GP5-8 (human, biotin at the N-terminus); assay: as above
T2 construct: GP5 with alanine at position 8 (R8A), already in the entry
T2 peptide: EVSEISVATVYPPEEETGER

GP5-9 = target: T3, GP5-9 (human, biotin at the N-terminus); assay: as above
T3 construct: GP5 with alanine at position 9 (T9A), already in the entry
T3 peptide: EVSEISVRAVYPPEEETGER

GP5-10 = target: T4, GP5-10 (human, biotin at the N-terminus); assay: as above
T4 construct: GP5 with alanine at position 10 (V10A), already in the entry
T4 peptide: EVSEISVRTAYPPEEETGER

GP5-11 = target: T5, GP5-11 (human, biotin at the N-terminus); assay: as above
T5 construct: GP5 with alanine at position 11 (Y11A), already in the entry
T5 peptide: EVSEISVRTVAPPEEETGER

GP5-12 = target: T6, GP5-12 (human, biotin at the N-terminus); assay: as above
T6 construct: GP5 with alanine at position 12 (P12A), already in the entry
T6 peptide: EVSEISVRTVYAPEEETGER

GP5-13 = target: T7, GP5-13 (human, biotin at the N-terminus); assay: as above
T7 construct: GP5 with alanine at position 13 (P13A), already in the entry
T7 peptide: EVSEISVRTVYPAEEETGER

GP5-14 = target: T8, GP5-14 (human, biotin at the N-terminus); assay: as above
T8 construct: GP5 with alanine at position 14 (E14A), already in the entry
T8 peptide: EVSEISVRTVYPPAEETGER

GP5-15 = target: T9, GP5-15 (human, biotin at the N-terminus); assay: as above
T9 construct: GP5 with alanine at position 15 (E15A), already in the entry
T9 peptide: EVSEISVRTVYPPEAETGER

GP5-16 = target: T10, GP5-16 (human, biotin at the N-terminus); assay: as above
T10 construct: GP5 with alanine at position 16 (E16A), already in the entry
T10 peptide: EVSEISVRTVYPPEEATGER

GP5-17 = target: T11, GP5-17 (human, biotin at the N-terminus); assay: as above
T11 construct: GP5 with alanine at position 17 (T17A), already in the entry
T11 peptide: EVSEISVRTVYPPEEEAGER

GP5-18 = target: T12, GP5-18 (human, biotin at the N-terminus); assay: as above
T12 construct: GP5 with alanine at position 18 (G18A), already in the entry
T12 peptide: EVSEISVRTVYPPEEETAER

GP5-19 = target: T13, GP5-19 (human, biotin at the N-terminus); assay: as above
T13 construct: GP5 with alanine at position 19 (E19A), already in the entry
T13 peptide: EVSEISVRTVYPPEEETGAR

GP5-20 = target: T14, GP5-20 (human, biotin at the N-terminus); assay: as above
T14 construct: GP5 with alanine at position 20 (R20A), already in the entry
T14 peptide: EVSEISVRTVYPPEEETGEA

GP5-1 = target: T15, GP5-1 (human, biotin at the N-terminus); assay: as above
T15 construct: GP5 with alanine at position 1 (E1A), already in the entry
T15 peptide: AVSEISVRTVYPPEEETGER

GP5-2 = target: T16, GP5-2 (human, biotin at the N-terminus); assay: as above
T16 construct: GP5 with alanine at position 2 (V2A), already in the entry
T16 peptide: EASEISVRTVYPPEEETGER

GP5-3 = target: T17, GP5-3 (human, biotin at the N-terminus); assay: as above
T17 construct: GP5 with alanine at position 3 (S3A), already in the entry
T17 peptide: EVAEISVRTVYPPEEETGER

GP5-4 = target: T18, GP5-4 (human, biotin at the N-terminus); assay: as above
T18 construct: GP5 with alanine at position 4 (E4A), already in the entry
T18 peptide: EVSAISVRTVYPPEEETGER

GP5-5 = target: T19, GP5-5 (human, biotin at the N-terminus); assay: as above
T19 construct: GP5 with alanine at position 5 (I5A), already in the entry
T19 peptide: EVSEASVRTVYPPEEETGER

GP5-6 = target: T20, GP5-6 (human, biotin at the N-terminus); assay: as above
T20 construct: GP5 with alanine at position 6 (S6A), already in the entry
T20 peptide: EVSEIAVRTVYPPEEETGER

[1] = target: T21, human glycophorin A in the red blood cell membrane (human, UniProt P02724 20-150); assay: FACS, scFv-Fc
T21 construct: whole, on cells; used for intact RBC, isolated RBC membranes and transfected cells; the assay field tells which; also called GPA; hGPA
T21 sequence (looked up): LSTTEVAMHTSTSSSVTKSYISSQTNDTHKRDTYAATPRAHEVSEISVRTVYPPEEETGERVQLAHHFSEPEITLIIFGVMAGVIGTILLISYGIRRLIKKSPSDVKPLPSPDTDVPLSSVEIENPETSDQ

dog red blood cells [2] = target: T22, dog red blood cells (dog); assay: FACS, Dog RBC
T22 construct: also called dog RBC

[3] = target: T21, human glycophorin A in the red blood …; assay: FACS, Human RBC
[4] = target: T23, Rhesus monkey glycophorin A on Rhesus monkey red blood cells (Rhesus monkey, UniProt A0A1D5Q349 20-150); assay: FACS, Rhesus RBC
T23 construct: whole, on cells; also called Rhesus RBC; monkey GPA
T23 sequence: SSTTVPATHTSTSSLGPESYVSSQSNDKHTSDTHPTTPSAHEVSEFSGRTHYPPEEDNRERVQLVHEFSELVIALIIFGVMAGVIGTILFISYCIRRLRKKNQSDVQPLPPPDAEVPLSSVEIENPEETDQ

[5] = target: T24, Cynomolgus monkey glycophorin A on Cynomolgus monkey red blood cells (Cynomolgus monkey); assay: FACS, Cyno #1 RBC
T24 construct: whole, on cells; also called Cyno RBC; Cyno GPA

[6] = target: T24, Cynomolgus monkey glycophorin A on …; assay: FACS, Cyno #2 RBC
[7] = target: T24, Cynomolgus monkey glycophorin A on …; assay: FACS, Cyno #3 RBC
[8] = target: T25, recombinant human GPA ectodomain (human, UniProt P02724 20-91); assay: SPR, IgG
T25 construct: also called recombinant hGPA ECD; recGPA
T25 sequence: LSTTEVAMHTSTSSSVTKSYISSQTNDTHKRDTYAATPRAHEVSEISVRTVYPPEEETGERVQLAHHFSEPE

[9] = target: T26, purified human glycophorin A protein (Sigma, cat # G5017) (human, UniProt P02724 20-150); assay: ELISA, IgG
T26 construct: mature; also called Sigma hGPA; Sigma GPA
T26 sequence (looked up): T21 sequence (looked up)

[10] = target: T26, purified human glycophorin A protein …; assay: ELISA, hGPA
Protocol: (§1) Hybridomas were generated from the spleen cells of these mice and these hybriomas were screened first by fluorescence activated cell sorting (FACS) against isolated human and monkey (Cynomolgus monkey and Rhesus monkey) red blood cells (RBC) and then by ELISA against purified human glycophorin A protein (GPA). Isolated RBC were prepared from whole blood from normal human, cynomolgus monkey, and beagle dog, were anticoagulant with sodium heparin (Bioreclamation). 2-3 mL of whole blood was loaded gently on the top of 3 mL Ficoll Plus (Sigma Aldrich) then centrifuged at 500 g for 20 min at room temperature (RT). The RBC pellets were washed 3 times with 10 mL of PBS, and centrifuge 400 g for 10 min at RT. RBC pellets were re-suspended in PBS at the same total volume as the original blood volume to achieve the same RBC cell density as in whole blood and stored at 4° C. Purified human glycophorin A protein was obtained from Sigma Aldrich and coated on ELISA plates at 2 ug/ml. Binding of antibodies to human GPA was detected using appropriate secondary antibodies using methods well known in the art.

[11] = target: T21, human glycophorin A in the red blood …; assay: FACS, hu RBC
Protocol: as §1

dog red blood cells [12] = target: T22, dog red blood cells; assay: FACS, dog RBC
Protocol: as §1

[13] = target: T24, Cynomolgus monkey glycophorin A on …; assay: FACS, Cyno RBC
Protocol: as §1

[14] = target: T24, Cynomolgus monkey glycophorin A on …; assay: FACS, RBC Cy01
Protocol: (§2) The binding of the humanized variants to intact red blood cells (RBC) from humans (Hu01 to 03; 3 individuals), Rhesus monkey (Rh01 to 03; 3 individuals) and Cynomolgus monkey (Cy01 to 02; 2 individuals) was measured by fluorescence activated cell sorting (FACS).

[15] = target: T24, Cynomolgus monkey glycophorin A on …; assay: FACS, RBC Cy02
Protocol: as §2

[16] = target: T21, human glycophorin A in the red blood …; assay: FACS, RBC Hu01
Protocol: as §2

[17] = target: T21, human glycophorin A in the red blood …; assay: FACS, RBC Hu02
Protocol: as §2

[18] = target: T21, human glycophorin A in the red blood …; assay: FACS, RBC Hu03
Protocol: as §2

[19] = target: T23, Rhesus monkey glycophorin A on Rhesus …; assay: FACS, RBC Rh01
Protocol: as §2

[20] = target: T23, Rhesus monkey glycophorin A on Rhesus …; assay: FACS, RBC Rh02
[21] = target: T23, Rhesus monkey glycophorin A on Rhesus …; assay: FACS, RBC Rh03
Protocol: as §2

[22] = target: T26, purified human glycophorin A protein …; assay: ELISA, purified IgG
Protocol: (§3) The “Sigma GPA” is a crude preparation of human GPA extracted from human red blood cells and is therefore representative of the highly glycosylated form of the native protein.
(§4) EC 50 values were determined from a dilution curve of the antibody. Sigma GPA is partially purified GPA extracted from human red blood cells and purchased from Sigma Chemical Company (cat # G5017), asialo hGPA is human GPA that was desialylated and ECD is the recombinantly expressed ectodomain which is the extracellular portion of GPA.

[23] = target: T27, asialo hGPA (desialylated human GPA) (human, UniProt P02724 20-150, desialylated); assay: ELISA, purified IgG
T27 construct: mature; also called asialo-GPA
T27 sequence (looked up): T21 sequence (looked up)
Protocol: as §3, §4

[24] = target: T25, recombinant human GPA ectodomain; assay: ELISA, purified IgG
Protocol: as §3, §4

GP5 peptide = target: T28, GP5 peptide (human, N-terminal biotin); assay: peptides bound to plates (data not shown)
T28 construct: residues 42 to 61 of the human glycophorin A extracellular domain
T28 peptide: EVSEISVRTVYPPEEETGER

[25] = target: T21, human glycophorin A in the red blood …; assay: FACS, IgG titrated on human GPA expressing CHO-QMCF1 cells (17d post txn)

B1: TPP-5906 Fab (Fab, V domains shown)
VH: EVQLVQSGAEVKKPGASVKVSCKASGYTFTTYTIHWVRQAPGQGLEWMGYINPSSGYTRYNPKFKGRVTMTRDKSTSTAYMELRSLRSDDTAVYYCQTGTRDYWGQGTTVTVSS
VL: DIQLTQSPSFLSASVGDRVTITCRASSSVSYIYWFQQKPGKAPKLLIYATSTLQSGVPSRFSGSGSGTEYTLTISSLQPEDFATYYCHQRNSFPYTFGQGTKLEIKR
notes: also called parental humanized and germlined 6C12 Fab
binding signal (ELISA) (GP5-7): 7180 | binding signal (ELISA) (GP5-8): 7360 | binding signal (ELISA) (GP5-9): 7280 | binding signal (ELISA) (GP5-10): 337 | binding signal (ELISA) (GP5-11): -1 | binding signal (ELISA) (GP5-12): 282 | binding signal (ELISA) (GP5-13): 2000 | binding signal (ELISA) (GP5-14): 9 | binding signal (ELISA) (GP5-15): 366 | binding signal (ELISA) (GP5-16): 3390 | binding signal (ELISA) (GP5-17): 6250 | binding signal (ELISA) (GP5-18): 6290 | binding signal (ELISA) (GP5-19): 4580 | binding signal (ELISA) (GP5-20): 6850 | binding signal (ELISA) (GP5-1): 5310 | binding signal (ELISA) (GP5-2): 6170 | binding signal (ELISA) (GP5-3): 6160 | binding signal (ELISA) (GP5-4): 4840 | binding signal (ELISA) (GP5-5): 6780 | binding signal (ELISA) (GP5-6): 6370

B2: 1H5 scFv-Fc (Fc fusion)
scFv: QVQLQQSGAELARPGASVKMSCKASGYTFTSYSIHWIKQRPGQSLEWIGYINPNSDYANYNQKFKDKATLTTDKSSTTAYMQLSSLTTDDSAVYYCQTGTRDYWGQGTTLTVSSGGGGSGGGGSGGGGSDIVMTQSPSSLSVSAGEKVTMSCKSSQSLLNSGNQKNYLAWYQQKPGQPPKLLIYGASTRESGVPDRFTGSGSGTDFTLTISSVQAEDLAVYYCQNDHSYPYTFGGGTKLEIKGGGGAGGGGCKPCICTVPEVSSVFIFPPKPKDVLTITLTPKVTCVVVDISKDDPEVQFSWFVDDVEVHTAQTQPREEQFNSTFRSVSELPIMHQDWLNGKEFKCRVNSAAFPAPIEKTISKTKGRPKAPQVYTIPPPKEQMAKDKVSLTCMITDFFPEDITVEWQWNGQPAENYKNTQPIMDTDGSYFVYSKLNVQKSNWEAGNTFTCSVLHEGLHNHHTEKSLSHSPGK
notes: as m18
binding result [1]: no binding | FACS signal (dog red blood cells [2]): 1 Flourescent units | FACS signal [3]: 1 Flourescent units | FACS signal [4]: 1 Flourescent units | FACS signal [5]: 1 Flourescent units | FACS signal [6]: 1 Flourescent units | FACS signal [7]: 1 Flourescent units

B3: 6C12B8/H8 (antibody, V domains shown)
VH: RVQLQQSGAELARPGASVKMSCKASGYTFTTYTIHWVKQKTGQGLEWIGYINPSSDYTRYNPKFKDKATLTTDKSSSTAYMKLNSLASDDSAVYYCQTGTRDYWGQGTTLTVSS
VL: QIVLTQSPPIMSASPGEKVTMTCSAASSVSYIYWFQQKPGTSPKLWIYSTSTLPSGVPTRFSGSGSGTSYSLTISRMEAEDAATYYCHQRNSFPFTFGSGTKLEIR
notes: mouse IgG1/k from hybridoma; also called 6C12 parental; TPP-3422
Kd [8]: 2.98 nM | koff [8]: 0.00212 s⁻¹ | kon [8]: 711000 M⁻¹ s⁻¹ | t½ [8]: 5.4 min | EC50 [9]: 0.326 nM | EC50 [10]: 0.791 nM | FACS signal [11]: 3100 relative flourescence units | FACS signal (dog red blood cells [12]): 1.18 relative flourescence units | FACS signal [13]: 292 relative flourescence units | fluorescence intensity [14]: 2570 | fluorescence intensity [15]: 2570 | fluorescence intensity [16]: 3520 | fluorescence intensity [17]: 2540 | fluorescence intensity [18]: 2680 | fluorescence intensity [19]: 3780 | fluorescence intensity [20]: 3410 | fluorescence intensity [21]: 3180 | EC50 [22]: 0.64 nM | EC50 [23]: 0.69 nM | EC50 [24]: 0.59 nM | binding result (GP5 peptide): binds | EC50 (read off the curve) [25]: ~0.06 mg/L
